Our source for the Km and kcat values is article PMC7336285, “Metabolite‐based genome‐wide association study enables dissection of the flavonoid decoration pathway of wheat kernels” (Plant Biotechnology Journal, 2020).

Substrate in data set [1]: COc1cc(-c2cc(=O)c3c(O)cc(O[C@@H]4O[C@H](CO)[C@@H](O)[C@H](O)[C@H]4O)cc3o2)cc(OC)c1O
The experiment in a line: LC-MS product assay, Michaelis-Menten fit. The data set is classed as biochemical, Triticum aestivum. The following applies: formation of tricin 7-O-malonylglucoside, malonyl-CoA 0.03 mM, Tris-HCl pH 7.4, 37 °C.

Substrate in data set [2]: COc1cc(-c2cc(=O)c3c(O)cc(O)cc3o2)cc(OC)c1O
Description: LC-MS product assay, Michaelis-Menten fit. The following applies: formation of tricin 4′-O-glucoside (product postulated), UDP-glucose 0.75 mM, MgCl2 10 mM, Tris-HCl pH 7.4, 37 °C. The data set is classed as biochemical, Triticum aestivum.

B1: TraesCS2B01G472400 (Triticum aestivum) (protein)
chain: MARLLRTSLVAPSPAGAALHERSLPLTYLDALWLHATPVERVFFYPNATSDVLSNLTDSLSNALAAFYPLAGRLRLTPGAHNRYELHCQPGDGVTFTVAEYHHVGFDELATDEPTEVAKIVPLVPPLPEGGAVLAVQATVLRGGLAIGVTVHHAACDGVSSTHFLRTWAWAAAACSGASAPVPPFVDRSIIRARDDLYDAFTAPRLSSNDDDDGGKPPDSPVVQQLLATFTLSKEHLQSIKEAVAGEAERRGVPLPRATSIIAAFGFIWQCYVRAKPGTDGKAGSSCGGRAYFLLPADHRTRLEPPVPDEYLGNCLGPCIALAPRRDVAAAGADGLFTACAAIATAIDGVVRSGPGCWDGWMERIIEAYTAGDLPLTVAGSPRFRVYDTDFGFGRPAKVDVVSVARTGAMSVAEARSGGGGVEVGISLSAGAMERFNECFADAIASLSS
notes: GST-tagged (pGEX-6p-1), E. coli BL21(DE3), glutathione Sepharose purified, tag cleavage not mentioned
Turning to B1, in data set [1], the Km (usually the concentration of substrate that gives half-maximal velocity) amounted to 20.53 ± 1.02 µM; the kcat (in general, the number of substrate molecules converted per active site and unit of time at saturation) is 81.72 ± 6.11 s⁻¹.

B2: TraesCS1A01G347100 (Triticum aestivum) (protein)
chain: MEAANPNPTVVLHACLGVGHLIPMVELAKLFLLRGVPVVIAVPTPPASTADFFSSTASAVAGLEAANPSIAFHHLPPPDYPDPDPHPFLQMLDLLRLTVPSLLAFLRSLPSVAALVLDLFCIDSLDAAAQTGVPAYIYYTSSAGDLAAFLHLPHHFATTEGSFRDMGKAPLRFPGVPPIPASDMPHTVMDRADPICTIRIGHYGRIPEARGVLVNTYEWLEARAVGALREGVCVPGRPTPPVYCIGPLIVSDSAAAQGERHACLSWLDAQPERSVVFLCFGSMGAVSAAELKEIAHGLENSGHRFLWVVRTPPADPAKFFLPRPEPDLDALLPEGFTERTRDRGMVLKMWAPQVEVLRHAATGAFVTHCGWNSVLEAASAGVPMLCWPQYAEQRLNKEFVVDEMKVGVVMEGYDEELVRAEEVERKVRLVMESEEGEKLRERLALAKEKAAEAMADGGPSRMALAEFLKHSKLST
notes: as for B1
With B2, in data set [2], the Michaelis-Menten constant (Km) was 6.49 ± 0.71 µM.
